Patent US20240252795A1, “INGESTIBLE DEVICE FOR DELIVERY OF THERAPEUTIC AGENT TO THE GASTROINTESTINAL TRACT” (BIORA THERAPEUTICS, INC., priority 2018, published 2024)

Tests used:
[1] = Adalimumab plasma PK after ID administration via endoscopic injection needle; type: in vivo, female Yorkshire pigs (Sus scrofa domesticus); details: 5 pigs in two studies
Procedure: A total of 5 healthy female Yorkshire pigs (Sus scrofa domesticus) having a body weight of ˜25-40 kg were used in these studies, 3 in a first study and 2 in a second study. Each animal received test article via intraduodenal (ID) administration via an injection needle. The study design is shown below in Table 34.
Animals were housed one per cage and fasted for a minimum of 12 hours prior to dosing. Food was returned at 4 hours post-dose. Water was supplied ad libitum.
Intraduodenal (ID) administration was performed as follows. […] Once it was confirmed that the endoscopic injection needle was placed in the correct region, approximately 0.5 mL of saline was injected within the lamina propria of the mucosa to create a small bleb in the mucosa. The formulation was then injected into the bleb and flushed with approximately 0.8 mL of saline. […]
All plasma samples were diluted by 1:100 dilution. Diluted samples were processed in duplicates and the mean Optical Density (O.D.) was measured using a SpectraMax plate reader and utilizing SoftMax Pro software for analysis. The Lower Limit of Quantification (LLOQ) was calculated by adding 10× the standard deviation value of the blanks O.D. to the average of the blank standard O.D. values. […] The area under the concentration curve (AUC) was calculated with the trapezoidal rules.

[2] = molecular target: TNFα (Homo sapiens, UniProt P01375); test: LOCI competitive inhibition assay of adalimumab binding to TNFα after jet dispensing; details: delivery pressures up to 300 psi, nozzle diameter down to 0.35 mm
Sequence of TNFα (P01375 77-233 limits assumed): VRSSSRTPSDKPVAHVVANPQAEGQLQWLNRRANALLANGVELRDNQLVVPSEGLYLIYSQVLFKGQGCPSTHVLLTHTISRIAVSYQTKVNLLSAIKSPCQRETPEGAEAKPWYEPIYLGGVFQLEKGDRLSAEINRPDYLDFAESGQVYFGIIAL
Procedure: The drug (adalimumab) was loaded into the ingestible device and fired through a nozzle with varying diameters at various pressure conditions.
FIGS. 57A-57B illustrate the general principle of the assay.
Drug binding was detected using Luminescent Oxygen Channeling (LOCI™)—a competitive binding assay. Signal was detected by comparing to a non-drug carrier control and an artificially damaged drug using a commercial FAB fragmentation kit.
Drug function was determined through a competition binding assay comparing drug binding function for drug dispensed via standard delivery mechanism and drug delivered via the ingestible device with various pressures.

[3] = Non-reducing SDS-PAGE protein profile of jet-dispensed adalimumab (drug structure); type: physicochemical
Source text: The purpose of this study was to evaluate the effects that nozzle geometry and delivery pressure have on drug structure when the drug is dispensed from a jet delivery device using different delivery pressures and nozzle sizes. Structural changes in the jet-delivered drug could potentially result in compromised functioning of the drug in vitro.
The drug (adalimumab drug substance (DS)) was loaded into the simulated capsule jet delivery device and ejected using different pressures and nozzle geometries.
The resulting protein concentrations were obtained using an extinction coefficient of 1.4 and Gen5 version 3.03.14 program. The samples were then diluted and the protein profiles were analyzed using non-reducing SDS-PAGE. Protein banding patterns of the dispensed samples were compared to that of the unmanipulated drug and the drug artificially damaged (enzymatically degraded) via the papain in a commercial Fab fragmentation kit (Pierce™ Fab Preparation Kit).
For gel analysis, protein was mixed with non-reducing sample buffer. Samples were not heated. 5 μg of samples and controls were loaded per lane of a SDS-PAGE gel (4% Acrylamide-Bis stacking, 12% resolving; see Table 26). The gel was electrophoresed at 195 V and stained in R-250 Coomassie Blue dye.

[4] = Adalimumab plasma PK after ID (2-nozzle jet delivery device), SC or IV administration; type: in vivo, female Yorkshire pigs (Sus scrofa domesticus)
Procedure: A total of 21 healthy female Yorkshire pigs (Sus scrofa domesticus) having a body weight of 25-30 kg were used in this study. Five (N=5) were used in each of dose Groups 1-3 (intraduodenal (ID) administration via an endoscopically placed ingestible device), and three (N=3) were used in each of dose Group 4 (SC administration) and dose Group 5 (IV administration). The study design is shown below in Table 16.
Animals were housed two per cage and fasted for a minimum of 12 hours prior to dosing. Food was returned at 4 hours post-dose. Water was supplied ad libitum. The dosing was as follows: Dose day 1: group 1 (n=3), and group 3 (n=2); Dose day 2: group 2 (n=3), and group 1 (n=2); Dose day 3: group 3 (n=3), and group 2 (n=2); Dose day 4: groups 4 (n=3), and group 5 (n=3). Following the 240-hour post-dose blood collection the animal was euthanized via euthanasia solution IV bolus dose.
For subcutaneous (SC) administration, animals were placed in dorsal recumbence and the SC injection site asceptically prepared with alcohol. The test article was administered as an SC injection into a “skin tent” on the belly of the pig.
Each blood sample was collected from the pig jugular vein, or other suitable vessel via direct venipuncture, placed into a chilled tube containing K2-EDTA as the anticoagulant, and inverted several times to mix. Blood samples were kept on wet ice until centrifugation. […] Plasma was collected into pre-labeled polypropylene tubes and placed in a freezer set to maintain −60 to −80° C. prior to analysis.
All plasma samples were diluted by 1:100 dilution. Plasma samples were reanalyzed with a 1:1000 dilution from animals 6287, 6289, 6332, 6334, 6336, 6149, 6335, and 6337. Plasma samples close to the lower limit of quantification (LLOQ) were repeated with a 1:5 dilution from animals 6138 and 6137. […] Therefore, the data from animal 6138 and 6137 were not included in the final PK analysis. […] The area under the concentration curve (AUC) was calculated with the trapezoidal rules.

[5] = Group 1: ID, 2 nozzle jet delivery device 220 PSIG, 40 mg, N=2, plasma
[6] = Group 3: ID, 2 Nozzle device 320 PSIG, N=5, data from Example 5
[7] = Group 3: ID, 2 Nozzle device 320 PSIG, data from Example 5
[8] = Group 3: ID, 2 nozzle jet delivery device 320 PSIG, 40 mg, N=5, plasma
[9] = Group 4: SC control, N=3, data from Example 5
[10] = Group 4: SC control, data from Example 5
[11] = Group 5: IV control, N=3, data from Example 5

## adalimumab
[1]
  quantifiable levels in plasma: one animal from the first study and one animal from the second study had quantifiable levels
[2]
  ability of the drug to bind to the target TNFα after jet delivery: did not significantly inhibit the ability of the drug to bind to the target TNFα
[3]; 5 μg per lane, jet-delivered samples versus unmanipulated drug and papain-degraded controls
  protein banding pattern, non-reducing SDS-PAGE: same banding pattern as the unmanipulated drug
[3]; dispensing pressures and nozzle sizes employed
  structural changes after dispensing: No structural changes were evident
[4]; [5]
  Cmax: 570 ng/mL
  Tmax: 24 h
[4]; Group 2: ID, 2 nozzle jet delivery device 270 PSIG, 40 mg, N=4, plasma
  Tmax: 24 h
[4]; [6]
  AUC0-10 (±SEM): 32.31 µg·days/mL
  AUC0-10 Corrected for Dose (±SEM): 32.25 µg·days/mL
  Cmax: 5000 ng/mL
  Tmax: 24 h
[4]; [7]
  Bioavailability over IV (±SEM): 26.25
  Bioavailability over SC (±SEM): 35.38
[4]; [8]
  Cmax: 5000 ng/mL
  Tmax: 24 h
[4]; [9]
  AUC0-10 (±SEM): 91.87 µg·days/mL
  Tmax: 140 h
[4]; [10]
  Bioavailability over IV (±SEM): 74.89
  Bioavailability over SC (±SEM): 100
[4]; Group 4: SC, 40 mg, N=3, plasma
  Tmax: 140 h
[4]; Group 5: IV
  Bioavailability over IV: 100%
[4]; [11]
  AUC0-10 (±SEM): 122.67 µg·days/mL
  Tmax: 3.12 h
[4]; Group 5: IV control, data from Example 5
  Bioavailability over IV (±SEM): 100
[4]; Group 5: IV, 40 mg, N=3, plasma
  Tmax: 3.12 h
